Data as given in US12606635B2, “Glypican-2-binding moieties, chimeric antigen receptors and uses thereof” (Nanjing Legend Biotech Co., Ltd., priority 2020, dated 2026).

T1: recombinant human GPC2 protein (Homo sapiens, UniProt Q8N158)
T1 construct: His; purchased RD System (R&D Systems) 2304-GP
T1 sequence (Q8N158 24-554): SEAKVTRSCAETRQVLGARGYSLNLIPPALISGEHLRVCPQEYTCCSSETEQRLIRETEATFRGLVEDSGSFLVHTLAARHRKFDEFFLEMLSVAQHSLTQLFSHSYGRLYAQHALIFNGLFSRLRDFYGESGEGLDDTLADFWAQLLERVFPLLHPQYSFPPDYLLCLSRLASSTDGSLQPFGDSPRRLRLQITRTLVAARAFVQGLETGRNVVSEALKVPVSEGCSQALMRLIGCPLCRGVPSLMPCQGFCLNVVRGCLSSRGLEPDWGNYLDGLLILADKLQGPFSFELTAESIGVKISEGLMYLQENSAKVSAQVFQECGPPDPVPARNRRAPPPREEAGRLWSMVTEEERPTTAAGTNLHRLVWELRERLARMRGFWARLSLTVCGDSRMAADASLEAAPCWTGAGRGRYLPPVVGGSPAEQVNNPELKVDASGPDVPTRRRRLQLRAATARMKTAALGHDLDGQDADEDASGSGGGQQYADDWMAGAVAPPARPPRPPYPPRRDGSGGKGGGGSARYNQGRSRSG

T2: recombinant human GPC2-His protein (Homo sapiens, UniProt Q8N158)
T2 construct: His
T2 sequence (Q8N158 24-554): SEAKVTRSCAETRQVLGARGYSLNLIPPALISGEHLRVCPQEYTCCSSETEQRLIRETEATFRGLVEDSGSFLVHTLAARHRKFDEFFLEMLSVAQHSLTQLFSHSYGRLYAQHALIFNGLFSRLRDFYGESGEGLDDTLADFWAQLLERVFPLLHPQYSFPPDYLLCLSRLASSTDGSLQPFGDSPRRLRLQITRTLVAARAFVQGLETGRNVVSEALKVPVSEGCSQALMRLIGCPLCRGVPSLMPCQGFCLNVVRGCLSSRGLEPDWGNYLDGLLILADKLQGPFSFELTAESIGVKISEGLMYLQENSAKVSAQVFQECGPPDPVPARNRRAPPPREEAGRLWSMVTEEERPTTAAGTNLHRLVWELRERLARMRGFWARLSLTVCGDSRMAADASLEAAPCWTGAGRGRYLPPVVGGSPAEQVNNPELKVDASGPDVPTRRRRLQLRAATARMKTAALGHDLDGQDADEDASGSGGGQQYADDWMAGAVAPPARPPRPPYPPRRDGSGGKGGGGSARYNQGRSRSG

T3: human GPC2 expressing cells SH-SY5Y (Homo sapiens, UniProt Q8N158)
T3 construct: host or cells: SH-SY5Y
T3 sequence (Q8N158 24-554): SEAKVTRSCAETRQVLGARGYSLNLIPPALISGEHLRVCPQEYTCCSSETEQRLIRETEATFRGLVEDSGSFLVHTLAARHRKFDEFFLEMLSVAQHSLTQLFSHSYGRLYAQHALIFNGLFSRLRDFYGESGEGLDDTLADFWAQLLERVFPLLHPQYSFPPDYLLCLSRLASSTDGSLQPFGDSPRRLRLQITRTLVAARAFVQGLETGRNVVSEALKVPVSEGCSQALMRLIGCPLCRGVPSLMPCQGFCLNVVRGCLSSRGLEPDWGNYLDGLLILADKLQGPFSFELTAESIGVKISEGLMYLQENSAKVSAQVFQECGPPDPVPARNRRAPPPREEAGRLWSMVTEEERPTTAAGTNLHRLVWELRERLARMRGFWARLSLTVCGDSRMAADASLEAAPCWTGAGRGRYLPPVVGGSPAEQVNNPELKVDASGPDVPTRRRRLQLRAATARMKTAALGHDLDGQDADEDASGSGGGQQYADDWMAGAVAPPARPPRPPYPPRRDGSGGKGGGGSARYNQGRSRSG

T4: human GPC2 expressing cells HEK293T/hGPC2 (Homo sapiens, UniProt Q8N158)
T4 construct: expressed in transfected cells; host or cells: HEK293T (ATCC, #CRL-1573), plvx-EF1α-puro plasmid
T4 sequence (Q8N158 24-554): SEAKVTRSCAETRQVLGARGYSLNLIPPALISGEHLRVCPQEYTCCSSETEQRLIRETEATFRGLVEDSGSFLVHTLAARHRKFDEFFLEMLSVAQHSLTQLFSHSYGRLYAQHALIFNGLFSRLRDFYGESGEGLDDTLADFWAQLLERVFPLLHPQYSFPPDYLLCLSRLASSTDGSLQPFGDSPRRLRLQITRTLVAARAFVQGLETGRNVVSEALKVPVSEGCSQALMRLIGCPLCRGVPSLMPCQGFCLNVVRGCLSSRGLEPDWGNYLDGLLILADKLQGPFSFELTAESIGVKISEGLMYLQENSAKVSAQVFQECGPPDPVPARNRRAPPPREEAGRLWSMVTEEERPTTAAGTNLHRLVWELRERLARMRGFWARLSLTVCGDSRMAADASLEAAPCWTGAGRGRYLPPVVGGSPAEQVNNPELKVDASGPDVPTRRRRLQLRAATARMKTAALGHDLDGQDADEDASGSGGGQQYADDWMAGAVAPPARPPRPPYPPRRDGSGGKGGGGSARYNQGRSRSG


What was measured:
[1] = target: T1, recombinant human GPC2 protein; test: ELISA-based specific binding assay, human GPC2; settings: FIG. 3A-3G
Procedure: (§1) To evaluate the specificity of humanized anti-GPC2 VHH5 to recombinant human GPC2 protein, an ELISA-based binding assay was conducted to determine the differential target proteins binding of anti-GPC2 VHH5. Briefly, microplates were coated with 2 μg/mL recombinant human GPC1-His (RD System, Cat #4519-GP), GPC2-His (RD System, Cat #2304-GP), GPC3-His (ACRO, Cat #GP3-H5223), GPC4-Fc (RD System, Cat #9195-GP), GPC5-His (RD System, Cat #2607-G5/CF), GPC6-His (RD System, Cat #2845-GP) or recombinant mouse GPC2-His (RD System, Cat #2355-GP) proteins. Recombinant human protein coated plates were blocked with skim milk. Serially diluted humanized VHH-hIgG1Fc recombinant antibodies were added to each well of the plates and incubated at 4° C. for 1.5 h. Samples were further labelled with HRP-conjugated goat anti human IgG (H+L) secondary antibody (Genescript, Cat #A00166-1) and signal was developed with 3,3′,5,5′-Tetramethylbenzidine (TMB) substrate according to manufacturer's instruction. For the GPC4, VHH-His recombinant antibodies and anti-His tag secondary antibody (Genescript, Cat #A00612) were added to the GPC4-Fc coated plates instead. Optic density at 450 nm was measured by plate reader.

[2] = target: T2, recombinant human GPC2-His protein; test: SPR (Biacore T200) affinity of anti-GPC2 VHH-hIgG1Fc; settings: 1:1 binding model
Procedure: Each of the exemplary anti-GPC2 VHH sequences was cloned into a vector comprising a human IgG1Fc fragment (hlgG1Fc) sequence to facilitate recombinant expression of anti-GPC2 VHH-hlgG1Fc. Recombinant proteins were obtained and purified for SPR assays. The affinity of each anti-GPC2 VHH-hIgG1Fc for GPC2 was determined by SPR using a BIACORE® T200 analytical system (GE Healthcare). Briefly, recombinant human GPC2-His protein was covalently coupled to a CM5(s) sensor chip using an amine coupling kit. Exemplary VHH-hIgG1Fc proteins were serially diluted in running buffer (10 mM HEPES, 150 mM NaCl, 3 mM EDTA, 0.05% Tween-20, pH 7.4) and injected over the chip cell at a flowrate of 100 μL/min for 100 seconds followed by buffer-only injection for 300 seconds to allow for antibody dissociation. The dissociation […] (KD) were determined using the BIACORE® T200 evaluation software version 3.0 (Langmuir binding, local fit, 1:1 binding model).

[3] = system: other recombinant human and murine GPC family proteins (human GPC1, GPC3, GPC4, GPC5, GPC6, mouse GPC2); test: ELISA-based specific binding assay, cross-reactivity; settings: FIG. 3A-3G
Procedure: as §1

[4] = system: cynomolgus monkey GPC2 expressing cell HEK293T/cynoGPC2; test: Flow cytometry binding of VHH-His proteins to HEK293T/cynoGPC2; settings: FIG. 4A-4C
Text: (§2) Recombinant anti-GPC2 VHH-His proteins were constructed by fusing the anti-GPC2 VHH sequence to a mouse Ig heavy chain signal peptide sequence (N′-MGWSWILLFLLSVTAGVHS-C; SEQ ID NO: 179) at the N terminus, and a 6×His-tag (N′-HHHHHH-C; SEQ ID NO: 180) at the C terminus. The codons were further optimized for optimal expression in mammalian engineered immune effector cells. The obtained nucleotide sequences were then cloned into a mammalian expression vector pCDNA3.4 to provide expression plasmids.
(§3) Binding affinities of humanized VHH proteins AS70950VH6, AS71529VH6, AS72669VH6 and AS71529VH6-AS70950VH6 anti-GPC2 VHH-HIS proteins to human GPC2 expressing cells (SH-SY5Y and HEK293T/hGPC2) and cynomolgus monkey GPC2 expressing cell (HEK293T/cynoGPC2) were determined using flow cytometry. Briefly, serially diluted anti-GPC2 VHH-HIS proteins were incubated with 2×10^5 target cells at 4° C. for 30 mins. After washing, cells were further labelled with THE™ His tag Antibody (iFluor 647) (Genescript, #A01802) at 4° C. for 30 mins. Fluorescence intensity was measured by flow cytometry. A four parameters variable slope curve was fitted to each group using GraphPad Prism for Windows Version 6.02.

[5] = target: T3, human GPC2 expressing cells SH-SY5Y; test: Flow cytometry binding of VHH-His proteins to SH-SY5Y; settings: FIG. 4A-4C
Text: as §2, §3

[6] = target: T4, human GPC2 expressing cells HEK293T/hGPC2; test: Flow cytometry binding of VHH-His proteins to HEK293T/hGPC2; settings: FIG. 4A-4C
Text: as §2, §3

Molecule	binding to recombinant human GPC2 protein [1]	ka [2] [M⁻¹ s⁻¹]	kd [2] [s⁻¹]	cross-reactivity with other recombinant human and murine GPC family proteins [3]	binding to SH-SY5Y [5]	binding to HEK293T/hGPC2 [6]	binding to HEK293T/cynoGPC2 [4]
AS71529VH6-hIgG1Fc: AS71529VH6 VHH fused to human IgG1Fc fragment (protein, left off: a dimerising Fc or GST, AS71529VH6 VHH fused to human IgG1Fc fragment) EVQLVESGGGLVQPGGSLRLSCAVSEYRYSSRYCMGWFRQAPGKGREGVAAIDSNGSADYVDSVKGRFTISKDNSKNTLYLQMNSLRAEDTAMYYCAADHLAYDCYSGATSVFRYWGQGTLVTVSS	high affinity	850000	0.0044	–	–	–	–
AS71529VH6: humanized anti-GPC2 VHH, SEQ ID NO: 127; tested as VHH-HIS protein (protein, His tag; AS71529VH6, tested as VHH-HIS protein) VHH: EVQLVESGGGLVQPGGSLRLSCAVSEYRYSSRYCMGWFRQAPGKGREGVAAIDSNGSADYVDSVKGRFTISKDNSKNTLYLQMNSLRAEDTAMYYCAADHLAYDCYSGATSVFRYWGQGTLVTVSS	–	–	–	–	specifically bind	specifically bind	specifically bind
AS71529VH6-AS70950VH6: tandem humanized anti-GPC2 VHH, SEQ ID NO: 146; tested as VHH-HIS protein (protein, His tag; AS71529VH6-AS70950VH6, tested as VHH-HIS protein) VHH: EVQLVESGGGLVQPGGSLRLSCAVSEYRYSSRYCMGWFRQAPGKGREGVAAIDSNGSADYVDSVKGRFTISKDNSKNTLYLQMNSLRAEDTAMYYCAADHLAYDCYSGATSVFRYWGQGTLVTVSSGGGGSGGGGSGGGGSEVQLVESGGGLVQPGGSLRLSCAISEFTYKNTCVGWFRQAPGKGREGVAAIDSDGNTNYVDSVKGRFTISQDNSKNTVYLQMNSLRAEDTAMYYCAAGAYCGRLLLWIGNYAYWGQGTLVTVSS	–	–	–	–	specifically bind	specifically bind	specifically bind
AS70950VH6-hIgG1Fc: AS70950VH6 VHH fused to human IgG1Fc fragment (protein, left off: a dimerising Fc or GST, AS70950VH6 VHH fused to human IgG1Fc fragment) EVQLVESGGGLVQPGGSLRLSCAISEFTYKNTCVGWFRQAPGKGREGVAAIDSDGNTNYVDSVKGRFTISQDNSKNTVYLQMNSLRAEDTAMYYCAAGAYCGRLLLWIGNYAYWGQGTLVTVSS	high affinity	390000	0.00011	no cross-reactivity	–	–	–
AS70950VH6: humanized anti-GPC2 VHH, SEQ ID NO: 124; tested as VHH-HIS protein (protein, His tag; AS70950VH6, tested as VHH-HIS protein) VHH: EVQLVESGGGLVQPGGSLRLSCAISEFTYKNTCVGWFRQAPGKGREGVAAIDSDGNTNYVDSVKGRFTISQDNSKNTVYLQMNSLRAEDTAMYYCAAGAYCGRLLLWIGNYAYWGQGTLVTVSS	–	–	–	–	specifically bind	specifically bind	specifically bind

The next lines start with results.

binding to recombinant human GPC2 protein [1]	ka [2] [M⁻¹ s⁻¹]	kd [2] [s⁻¹]	cross-reactivity with other recombinant human and murine GPC family proteins [3]	binding to SH-SY5Y [5]	binding to HEK293T/hGPC2 [6]	Molecule	binding to HEK293T/cynoGPC2 [4]
high affinity	530000	0.00019	no cross-reactivity	–	–	AS79236VH6-hIgG1Fc: AS79236VH6 VHH fused to human IgG1Fc fragment (protein, left off: a dimerising Fc or GST, AS79236VH6 VHH fused to human IgG1Fc fragment) EVQLVESGGGLVQPGGSLRLSCAVSGYTYSSYCMAWFRQAPGKGLEGVASIDAGGRTTYVDSVKGRFTISKDNAKNSLYLQMNSLRAEDTAMYYCAVDVRTRCGGTWDGEAVYFPYWGQGTLVTVSS	–
–	–	–	–	specifically bind	specifically bind	AS72669VH6: humanized anti-GPC2 VHH, SEQ ID NO: 130; tested as VHH-HIS protein (protein, His tag; AS72669VH6, tested as VHH-HIS protein) VHH: QVQLVESGGGVVQPGGSLRLSCAASRFTYSSYCMGWIRQAPGKGREGVAIFYTGGGRTYYADSVKGRFTISQDNSKNTLYLQMNSLRAEDTAVYYCVAGFYCSGGYWEGDFGYWGQGTLVTVSS	specifically bind
high affinity	200000	0.00017	no cross-reactivity	–	–	AS78117VH4-hIgG1Fc: AS78117VH4 VHH fused to human IgG1Fc fragment (protein, left off: a dimerising Fc or GST, AS78117VH4 VHH fused to human IgG1Fc fragment) EVQLVESGGGLVQPGGSLRLSCIVSRYTYATYSMAWFRQAPGKGLEGVSGLDSVGATGYAESVKGRFTISRDNSKNTLYLQMNSLRAEDTAVYYCVVDPASAKVTYGSWSTPSYAYWGQGTLVTVSS	–
